How the values were obtained:
[1] = test system: EpiAirway cell membrane; type: cell-based; settings: Table 11
Text: While measurement of mitochondrial reductase activity by MTT reduction is a sensitive probe of cell viability, the assay necessarily destroys the cells and therefore can be carried out only at the end of each study. When cells undergo necrotic lysis, their cytotosolic contents are spilled into the surrounding medium, and cytosolic enzymes such as lactic dehydrogenase (LDH) can be detected in this medium. An assay for LDH in the medium can be performed on samples of medium removed at each time point of the two-hour determination of permeation kinetics.
A. The recommended LDH assay for evaluating cytolysis of the EpiAirway units is based on conversion of lactate to pyruvate with generation of NADH from NAD. The NADH is then reoxidized along with simultaneous reduction of the tetrazolium salt INT, catalyzed by a crude “diaphorase” preparation. The formazan formed from reduction of INT is soluble, so that the entire assay for LDH activity can be carried out in a homogenous aqueous medium containing lactate, NAD, diaphorase, and INT.
B. The assay for LDH activity is carried out on 50 μL aliquots from samples of “supernatant” medium surrounding an EpiAirway unit and collected at each time point. These samples were either stored for no longer than 24 h in the refrigerator or were thawed after being frozen within a few hours after collection. Each EpiAirway unit generates samples of supernatant medium collected at 15 min, 30 min, 1 h, and 2 h after application of the test material. The aliquots are all transferred to a 96 well microplate.
C. A 50 μL aliquot of medium which had not been exposed to a unit serves as a “blank” or negative control of 0% cytotoxicity. […] Thus, within experimental error, these sham-treated units show no cytolysis of the epithelial cells over the time course of the permeation kinetics measurements.
D. To prepare a sample of supernatant medium reflecting the level of LDH released after 100% of the cells in a unit have lysed, a unit which had not been subjected to any prior manipulations is added to a well of a 6-well microplate containing 0.9 mL of medium as in the protocol for determination of permeation kinetics, the plate containing the unit is frozen at −80° C., and the contents of the well are then allowed to thaw. This freeze-thaw cycle effectively lyses the cells and releases their cytosolic contents, including LDH, into the supernatant medium. A 50 μL aliquot of the medium from the frozen and thawed cells is added to the 96-well plate as a positive control reflecting 100% cytotoxicity.
E. To each well containing an aliquot of supernatant medium, a 50 μL aliquot of the LDH assay reagent is added. The plate is then incubated for 30 minutes in the dark.
F. The reactions are terminated by addition of a “stop” solution of 1 M acetic acid, and within one hour of addition of the stop solution, the absorbance of the plate is determined at 490 nm.
G. Computation of percent cytolysis is based on the assumption of a linear relationship between absorbance and cytolysis, with the absorbance obtained from the medium alone serving as a reference for 0% cytolysis and the absorbance obtained from the medium surrounding a frozen and thawed unit serving as a reference for 100% cytolysis.

[2] = Bioavailability of nasal interferon-α in healthy male volunteers versus subcutaneous administration; type: in vivo, human; settings: for Cmax: 3 MIU, SC, human plasma
Text: The present example provides a non-blinded study to determine the uptake of intranasally administered interferon-α in combination with one or more intranasal delivery-enhancing agents into the blood serum in healthy male volunteers.
Twelve healthy male subjects are enrolled in the step and each receives all 3 test product in a cross over fashion.
Each receive all 3 test products.
The protocol involved three doses of the same test product in a dose escalation manner.
The absorption and tolerance results of all products tested were tabulated and analyzed for Cmax, Tmax, and bioavailability (Area under concentration curve, AUC).
For nasal and injectable preparations in Protocols 1 and 2, 7 mL blood samples were drawn at 0 (prior to dose), 10, 20, 30, 45, 60, 75, 90, 120, 180, 240, 360, and 480 minutes post dosing into appropriate vacutainers.
The blood samples were centrifuged and the serum assayed for drug concentration using ELISA Method.
This is a single dose, parallel group study to evaluate absorption, tolerance and pharmacodynamic parameters of Interferon-α-2b by two routes of administration: subcutaneous and intranasally. The study involves twelve healthy male subjects randomly assigned six per group (6 subjects subcutaneous and 6 intranasal). The objective of the study is to evaluate the absorption, tolerance and pharmacodynamic parameters of intranasal administration of Interferon-α-2b by formulations of the present invention versus subcutaneous administration of interferon-α-2b (IntronA®, Schering, Corp.).
When receiving the intranasal dosage formulations, the subjects were seated and instructed to gently blow their nose before dosing. During dosing, the other nostril must be closed with the forefinger. They were also instructed to tilt their heads slightly back for dosing and to return their heads to an upright position while sniffing in gently immediately following dosing. Subjects must avoid additional sniffing and must remain in a seated position with head upright for 5 minutes after dosing. […]
Serum drug concentrations were measured using a suitable analytical method. […]

[3] = test system: EpiAirway™ Cell Membrane (mucosal epithelial cell layer)
Description: (§1) The epithelial cells are grown on porous membrane-bottomed cell culture inserts at an air-liquid interface, which results in differentiation of the cells to a highly polarized morphology. […] The inserts have a diameter of 0.875 cm, providing a surface area of 0.6 cm^2.
(§2) A. On arrival, the units are placed onto sterile supports in 6-well microplates. Each well receives 5 mL of proprietary culture medium. This DMEM-based medium is serum free but is supplemented with epidermal growth factor and other factors. The medium is always tested for endogenous levels of any cytokine or growth factor which is being considered for intranasal delivery, but has been free of all cytokines and factors studied to date except insulin. The 5 mL volume is just sufficient to provide contact to the bottoms of the units on their stands, but the apical surface of the epithelium is allowed to remain in direct contact with air. Sterile tweezers are used in this step and in all subsequent steps involving transfer of units to liquid-containing wells to ensure that no air is trapped between the bottoms of the units and the medium.
(§3) B. The units in their plates are maintained at 37° C. in an incubator in an atmosphere of 5% CO2 in air for 24 hours. At the end of this time the medium is replaced with fresh medium and the units are returned to the incubator for another 24 hours.
(§4) A. A “kit” of 24 EpiAirway units can routinely be employed for evaluating five different formulations, each of which is applied to quadruplicate wells. Each well is employed for determination of permeation kinetics (4 time points), transepithelial resistance, mitochondrial reductase activity as measured by MTT reduction, and cytolysis as measured by release of LDH. An additional set of wells is employed as controls, which are sham treated during determination of permeation kinetics, but are otherwise handled identically to the test sample-containing units for determinations of transepithelial resistance and viability.
(§5) B. In all experiments, the mucosal delivery formulation to be studied is applied to the apical surface of each unit in a volume of 100 μL, which is sufficient to cover the entire apical surface. An appropriate volume of the test formulation at the concentration applied to the apical surface (no more than 100 μL is generally needed) is set aside for subsequent determination of concentration of the active material by ELISA or other designated assay.
(§6) D. In order to minimize potential sources of error and avoid any formation of concentration gradients, the units are transferred from one 0.9 mL-containing well to another at each time point in the study. These transfers are made at the following time points, based on a zero time at which the 100 αL volume of test material was applied to the apical surface: 15 minutes, 30 minutes, 60 minutes, and 120 minutes.
(§7) E. In between time points the units in their plates are kept in the 37° C. incubator. Plates containing 0.9 mL medium per well are also maintained in the incubator so that minimal change in temperature occurs during the brief periods when the plates are removed and the units are transferred from one well to another using sterile forceps.

[4] = test system: EpiAirway™ Cell Membrane (mucosal epithelial cell layer); test: Permeation kinetics of interferon-α-2b measured by ELISA assay; settings: Table 9
Description: as §1, §2, §3, §4, §5, §6, §7

[5] = test system: ciliary function in epithelial cell cultures; settings: cited from earlier work

| Substance | % Dead Cells at Time-Intervals (min), 0 ([1]; 0 min) [%] | % Dead Cells at Time-Intervals (min), 15 ([1]; 15 min) [%] | % Dead Cells at Time-Intervals (min), 30 ([1]; 30 min) [%] | % Dead Cells at Time-Intervals (min), 60 ([1]; 60 min) [%] | % Dead Cells at Time-Intervals (min), 120 ([1]; 120 min) [%] | Cmax ([2]; 0 to 3 hour) [IU/mL] | Cmax ([2]; 0 to 4 hour) [IU/mL] | maximum concentration of interferon-α in the blood serum (Cmax) ([2]; subcutaneous, 3 MIU dose, at 3 hours post dosing) [IU/mL] | Fold Increase [3] [fold] | % Permeated at Time-intervals (min), 0 min ([4]; 0 min) [%] | % Permeated at Time-intervals (min), 15 min ([4]; 15 min) [%] | % Permeated at Time-intervals (min), 30 min ([4]; 30 min) [%] | % Permeated at Time-intervals (min), 60 min ([4]; 60 min) [%] | % Permeated at Time-intervals (min), 120 min ([4]; 120 min) [%] | concentration producing ciliostasis / inhibiting ciliary motility [5] [µg/mL] |
| --- | --- | --- | --- | --- | --- | --- | --- | --- | --- | --- | --- | --- | --- | --- | --- |
| interferon α-2b [Intron A] | 0 | 0.84 | 0.93 | 1.65 | 4.27 | 4.0 | 6.8 | 4.0 | 1 | 0 | 0.000 | 0.003 | 0.011 | 0.022 | – |
| 2-alkyl-4-hydroxyquinolines [pyo compound] | – | – | – | – | – | – | – | – | – | – | – | – | – | – | 50 |

Source: US20040258663A1, “Compositions and methods for enhanced mucosal delivery of interferon alpha” (Nastech Pharmaceutical Company Inc., priority 2003, published 2004)
